Measured values taken from publication PMC5614548, “Effects of isoleucine 135 side chain length on the cofactor donor-acceptor distance within F420H2:NADP^+ oxidoreductase: A kinetic analysis^” (Biochemistry and Biophysics Reports, 2016).
Numbering of substitutions follows the chain as printed. Names may count otherwise. Read-outs that look alike come from different tables or passages of the source.

B1: Fno (F420H2:NADP+ oxidoreductase) (Archaeoglobus fulgidus DSM 4304; I135V) (protein)
chain: MRVALLGGTGNLGKGLALRLATLGHEIVVGSRREEKAEAKAAEYRRIAGDASITGMKNEDAAEACDIAVLTIPWEHAIDTARDLKNILREKIVVSPLVPVSRGAKGFTYSSERSAAEIVAEVLESEKVVSALHTVPAARFANLDEKFDWDVPVCGDDDESKKVVMSLISEIDGLRPLDAGPLSNSRLVESLTPLILNIMRFNGMGELGIKFL
B2: Fno (F420H2:NADP+ oxidoreductase) (Archaeoglobus fulgidus DSM 4304; I135A) (protein)
chain: B1 chain with V135A
B3: Fno (F420H2:NADP+ oxidoreductase) (Archaeoglobus fulgidus DSM 4304; I135G) (protein)
chain: B1 chain with V135G

What was measured:
[1] = target: Fno (F420H2:NADP+ oxidoreductase) (Archaeoglobus fulgidus, UniProt O29370, I135A); test: tryptophan fluorescence titration, fit with Hill coefficient; assay type: binding
From the text: (§1) tryptophan fluorescence titration, fit with Hill coefficient on Fno (F420H2:NADP+ oxidoreductase)

[2] = target: Fno (F420H2:NADP+ oxidoreductase) (Archaeoglobus fulgidus, UniProt O29370, I135G); test: as above; assay type: binding
From the text: as §1

[3] = target: Fno (F420H2:NADP+ oxidoreductase) (Archaeoglobus fulgidus, UniProt O29370, I135V); test: as above; assay type: binding
From the text: as §1

purified protein [4] = substrate: O=c1nc2n(C[C@H](O)[C@H](O)[C@H](O)CO)c3cc(O)ccc3cc-2c(=O)[nH]1; test: purified protein; assay type: biochemical, Archaeoglobus fulgidus; conditions: 600 µM NADPH, 50 mM MES/NaOH pH 6.5, 22 °C
purified protein [5] = substrate: NC(=O)C1=CN([C@@H]2O[C@H](COP(=O)(O)OP(=O)(O)OC[C@H]3O[C@@H](n4cnc5c(N)ncnc54)[C@H](OP(=O)(O)O)[C@@H]3O)[C@@H](O)[C@H]2O)C=CC1; test: purified protein; assay type: biochemical, Archaeoglobus fulgidus; conditions: 25 µM FO, 50 mM MES/NaOH pH 6.5, 22 °C, phase 1 of biphasic fit, negative cooperativity

Chain of Fno (F420H2:NADP+ oxidoreductase) (Archaeoglobus fulgidus, UniProt O29370, I135A) (O29370 whole entry I135A, one chain of several): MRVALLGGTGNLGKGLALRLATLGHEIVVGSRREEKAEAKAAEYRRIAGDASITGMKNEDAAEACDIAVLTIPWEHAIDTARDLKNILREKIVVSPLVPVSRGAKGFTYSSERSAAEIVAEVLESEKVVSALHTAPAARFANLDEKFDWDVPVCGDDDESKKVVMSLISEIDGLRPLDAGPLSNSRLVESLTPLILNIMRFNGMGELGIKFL
Chain of Fno (F420H2:NADP+ oxidoreductase) (Archaeoglobus fulgidus, UniProt O29370, I135G) (O29370 whole entry I135G, one chain of several): as the sequence (O29370 whole entry I135A, one chain of several) above, with A135G counted along it

Row | Molecule | Km (purified protein [4]) [µM] | kcat (purified protein [4]) [s⁻¹] | kcat/Km (purified protein [4]) [M⁻¹ s⁻¹] | other results
1 | O=c1nc2n(C[C@H](O)[C@H](O)[C@H](O)CO)c3cc(O)ccc3cc-2c(=O)[nH]1 [FO] | – | – | – | Kd ([1]; read-out: Kd^FO): 5.6 ± 0.2 nM; Kd ([2]; read-out: Kd^FO): 6.9 ± 0.3 nM; Kd ([3]; read-out: Kd^FO): 7.5 ± 0.9 nM
2 | NC(=O)C1=CN([C@@H]2O[C@H](COP(=O)(O)OP(=O)(O)OC[C@H]3O[C@@H](n4cnc5c(N)ncnc54)[C@H](OP(=O)(O)O)[C@@H]3O)[C@@H](O)[C@H]2O)C=CC1 [NADPH] | – | – | – | Kd ([1]; read-out: Kd^NADPH): 6.7 ± 0.7 nM; Kd ([2]; read-out: Kd^NADPH): 1.5 ± 0.1 nM; Kd ([3]; read-out: Kd^NADPH): 7.4 ± 1.1 nM
3 | B1 | 3.7 ± 0.4 | 1.8 ± 0.1 | 490000 ± 55000 | Km (purified protein [5]): 0.7 ± 0.1 µM; kcat (purified protein [5]): 1.5 ± 0.09 s⁻¹; kcat/Km (purified protein [5]): 2.1e+06 ± 340000 M⁻¹ s⁻¹
4 | B2 | 3.6 ± 0.5 | 1.6 ± 0.1 | 450000 ± 66000 | –
5 | B3 | 3.6 ± 0.4 | 0.7 | 200000 | –
